system: Escherichia coli TOP10; test: shrunken log2 fold change of peptide-encoding DNA abundance (4.5 h post-induction vs induction); higher = less antimicrobial activity (less host growth inhibition); conditions: time post-induction: 4.5 h; library: site-saturation at positions 5, 18, 19, 20
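Note: peptides expressed intracellularly from a pBAD plasmid library in pooled LB shake-flask culture, induced with 0.3% L-arabinose, DNA abundance read by NGS, three biological replicates, DESeq2 with apeglm shrinkage.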

| Sequence | shrunken log2 fold change |
| --- | --- |
| RRIRNRPPRLPRPRPRPHCFPRP | -0.641 |
| RRIRLRPPRLPRPRPRPNPAPRP | -0.0363 |
| RRIRYRPPRLPRPRPRPLMPPRP | -0.931 |
| RRIRHRPPRLPRPRPRPPEEPRP | 0.791 |
| RRIRLRPPRLPRPRPRPVMTPRP | -0.148 |
| RRIRPRPPRLPRPRPRPLIYPRP | -0.457 |
| RRIRLRPPRLPRPRPRPPDDPRP | 0.397 |
| RRIRFRPPRLPRPRPRPGTDPRP | -0.11 |
| RRIRSRPPRLPRPRPRPQDYPRP | -0.356 |
| RRIRRRPPRLPRPRPRPHYAPRP | 0.148 |
| RRIRWRPPRLPRPRPRPNVMPRP | -0.00962 |
| RRIRHRPPRLPRPRPRPIKQPRP | -0.0565 |
| RRIRLRPPRLPRPRPRPCTNPRP | -0.094 |
| RRIRDRPPRLPRPRPRPAHRPRP | -0.0802 |
| RRIRCRPPRLPRPRPRPHHCPRP | 0.00372 |
| RRIRWRPPRLPRPRPRPKGGPRP | 0.536 |
| RRIRQRPPRLPRPRPRPINGPRP | -0.000925 |
| RRIRWRPPRLPRPRPRPVIRPRP | 0.0511 |
| RRIRARPPRLPRPRPRPMRNPRP | 0.756 |
| RRIRTRPPRLPRPRPRPMQWPRP | 0.0688 |

| Sequence | shrunken log2 fold change |
| --- | --- |
| RRIRVRPPRLPRPRPRPNCCPRP | -0.0903 |
| RRIRPRPPRLPRPRPRPLSVPRP | -0.121 |
| RRIRCRPPRLPRPRPRPAVHPRP | 0.0826 |
| RRIRDRPPRLPRPRPRPQGTPRP | 0.165 |
| RRIRCRPPRLPRPRPRPYCHPRP | -1.37 |
| RRIRIRPPRLPRPRPRPWLPPRP | -0.325 |
| RRIRDRPPRLPRPRPRPYVPPRP | -0.604 |
| RRIRCRPPRLPRPRPRPQIQPRP | -0.288 |
| RRIRRRPPRLPRPRPRPKGVPRP | 0.401 |
| RRIRSRPPRLPRPRPRPMPRPRP | 0.346 |
| RRIRVRPPRLPRPRPRPGTIPRP | -0.0277 |
| RRIRQRPPRLPRPRPRPDFLPRP | -0.338 |
| RRIRVRPPRLPRPRPRPKKSPRP | 0.585 |
| RRIRGRPPRLPRPRPRPHEPPRP | 1.15 |
| RRIRGRPPRLPRPRPRPHWNPRP | -0.017 |
| RRIRARPPRLPRPRPRPYVMPRP | -0.211 |
| RRIRGRPPRLPRPRPRPLDPPRP | 0.9 |
| RRIRLRPPRLPRPRPRPCNEPRP | -0.0438 |
| RRIRVRPPRLPRPRPRPNDIPRP | -0.235 |
| RRIRRRPPRLPRPRPRPDKLPRP | -0.115 |

| Sequence | shrunken log2 fold change |
| --- | --- |
| RRIRKRPPRLPRPRPRPERRPRP | 0.337 |
| RRIRRRPPRLPRPRPRPFGIPRP | 0.0306 |
| RRIRLRPPRLPRPRPRPHLGPRP | -0.105 |
| RRIRGRPPRLPRPRPRPCMPPRP | -0.152 |
| RRIRNRPPRLPRPRPRPRKYPRP | -0.258 |
| RRIRRRPPRLPRPRPRPDKYPRP | -0.259 |
| RRIRFRPPRLPRPRPRPPTDPRP | 0.414 |
| RRIRDRPPRLPRPRPRPTAEPRP | 1.4 |
| RRIRSRPPRLPRPRPRPMRMPRP | 0.323 |
| RRIRFRPPRLPRPRPRPSVNPRP | -0.388 |
| RRIRIRPPRLPRPRPRPLSPPRP | 1.35 |
| RRIRERPPRLPRPRPRPYYTPRP | -0.116 |
| RRIRQRPPRLPRPRPRPDSLPRP | -0.0756 |
| RRIRQRPPRLPRPRPRPLSCPRP | -0.242 |
| RRIRMRPPRLPRPRPRPCNLPRP | -0.369 |
| RRIRPRPPRLPRPRPRPHLVPRP | -0.034 |
| RRIRARPPRLPRPRPRPNKKPRP | -0.00857 |
| RRIRNRPPRLPRPRPRPHHGPRP | -0.00683 |
| RRIRVRPPRLPRPRPRPAEFPRP | 0.151 |
| RRIRYRPPRLPRPRPRPRTFPRP | -0.757 |

Reference: the supplement of paper PMC9112550, “Optimization of the antimicrobial peptide Bac7 by deep mutational scanning” (BMC Biology, 2022)
